The data set deals with SinR (Bacillus subtilis). Nature of the data set: EMSA. The settings on record: EMSA: 15 mM Tris-Cl, 4 mM MOPS-KOH, 15 mM KCl, 50 mM NaCl, 0.8 mM MgCl2, 0.6 mM DTT, 12.5% glycerol, pH 7.8, 1 ug poly(dI-dC) in 16 ul, 20 fmol probe, 28 C …. In general terms: A gel shift assay detects complexes by their altered migration in electrophoresis.

Consider PkinB(-31/+104), for which the Kd (SinR-2 site, binding stated) was > 100 nM.
PkinB(-75/-7) delta5 G-45A registered an equilibrium dissociation constant (Kd) (SinR-2 site) of 10 nM.
Consider Fm0 PkinB(-39/+104), for which the Kd (SinR-2 site, binding stated (also given as >100 nM)) was > 400 nM.
Substance PkinB(-75/+10) delta5 G-45A gave a Kd (SinR-2 site (SinR-1 not bound)) of 10 nM. This counts as double-digit nanomolar.
PkinB(-75/+10) G-45A returned a binding signal (fold lower affinity) (SinR-1 site (upper band)) of 2.
Regarding PkinB(-55/+10) WT, the Kd (SinR-2 site, binding stated) is > 100 nM.
Substance Rm0 PkinB(-124/-38) returned a Kd (SinR-1 site) of 50 nM. This lies in the double-digit nanomolar range.

A word on the Kd: it is the equilibrium constant for the complex coming apart. Low values mean higher affinity, high ones lower affinity.

The values above are taken from publication PMC5733473.
